Test results taken from patent publication US20100297101A1 (Scripps Research, published 2010).
Bridges are numbered along the chain shown (N, C = ends). Where no end group is shown, it is not given here.

Columns and labels:
[1] = molecular target: native integrin αIIbβ3 expressed on the surface of human platelets (human) (UniProt P08514); test: cell-based or functional assay
[2] = molecular target: human integrin αIIbβ3 (purified, Enzyme Research Laboratories) (human) (UniProt P08514); test: competitive ELISA: inhibition of biotinylated human fibrinogen binding to immobilised human integrin αIIbβ3
[3] = molecular target: T1, human integrin αIIbβ3 (purified, Enzyme Research Laboratories) (human, UniProt P08514 32-1039; P05106 27-788); test: competitive ELISA: inhibition of biotinylated fibrinogen binding to immobilised integrin αIIbβ3
T1 construct: Bought protein, coated on ELISA plates or used in solution; also called integrin αIIββ3; GPIIb/IIIa

Chain of Fab abciximab (ReoPro) (VH): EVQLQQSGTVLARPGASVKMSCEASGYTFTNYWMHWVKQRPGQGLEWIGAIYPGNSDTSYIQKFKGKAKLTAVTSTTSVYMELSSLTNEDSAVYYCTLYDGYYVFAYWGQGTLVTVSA
Chain of Fab abciximab (ReoPro) (VL): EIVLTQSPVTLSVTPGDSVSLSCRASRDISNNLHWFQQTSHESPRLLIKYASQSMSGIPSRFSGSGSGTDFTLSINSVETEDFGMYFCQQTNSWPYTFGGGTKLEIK

Question: For Fab abciximab (ReoPro), which EC50, required concentration for 50% inhibition in a human platelet aggregation assay [1] is on record?
Answer: Its EC50, required concentration for 50% inhibition in a human platelet aggregation assay is 45 nM.

Question: What about the IC50 [2] of the same molecule?
Answer: The IC50 was 90 nM.

Question: How did the IC50 [3] turn out when VWCRADRRC (disulfide 3-9 (inferred); not fully specified) [cyclic peptide VWCRADRRC] was run?
Answer: The IC50 was 1200 nM.

Question: How did the IC50 [3] turn out when VWCRADKRC (disulfide 3-9 (inferred)) [cyclic peptide VWCRADKRC] was run?
Answer: Its IC50 is 4200 nM.

Question: Which IC50 [3] does the source give for VVCRADRRC (disulfide 3-9 (inferred), Synthetic nonapeptide (Peptron)) [cyclic peptide VVCRADRRC] here?
Answer: The IC50 was 11000 nM.
